Measurements taken from US20220119534A1 (DRAGONFLY THERAPEUTICS, published 2022).
Several values for one entry are separate records, joined by “and”; a condition that tells them apart may be missing. Identical values can stand only once.

Columns and labels:
[1] = target: T1, Human CD32a H131 (FcγRIIa H131) (human, UniProt P12318 36-218, limits assumed, biotinylated); assay: SPR 25C, average
T1 construct: Bought recombinant receptor; also called hFcγRIIa H131; FcgRIIa H131
T1 sequence (looked up): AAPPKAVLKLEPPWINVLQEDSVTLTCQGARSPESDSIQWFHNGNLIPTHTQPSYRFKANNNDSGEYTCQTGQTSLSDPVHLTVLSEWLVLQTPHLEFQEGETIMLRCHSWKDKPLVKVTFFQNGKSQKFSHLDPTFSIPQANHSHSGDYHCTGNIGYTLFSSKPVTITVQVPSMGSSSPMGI
Experimental: (§1) Human and cynomolgus CD64, high and low affinity alleles of CD16a (V158 and F158, respectively), two alleles of CD32a (H131 and R131), CD16b, CD32b and cynomolgus CD16 were captured via biotin on a primed (according to the manufacturers instruction) Biacore chip. […] Due to irreversibility of streptavidin-biotin interaction, the capture step for all receptors except FcγRI (CD64) was performed just once prior to the start of the binding experiment. hCD64 and cyno CD64 capture on the CAP chip surface was performed during each cycle in accordance with the manufacturer's instructions for the Biotin CAPture kit.

[2] = target: T2, Human CD32a R131 (FcγRIIa R131) (human, UniProt P12318 36-218, limits assumed, biotinylated); assay: SPR 25C, average
T2 construct: Bought recombinant receptor; also called hFcγRIIa R131; FcgRIIa R131
T2 sequence (looked up): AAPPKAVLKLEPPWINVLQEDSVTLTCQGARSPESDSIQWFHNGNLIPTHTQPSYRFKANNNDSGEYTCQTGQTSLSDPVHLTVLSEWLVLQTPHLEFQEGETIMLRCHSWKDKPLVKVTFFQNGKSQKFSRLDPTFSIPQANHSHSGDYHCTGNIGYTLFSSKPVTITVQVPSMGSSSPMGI
Experimental: as §1

[3] = target: T3, Human CLEC12A expressed on cells (Ba/F3-hCLEC12A, PL21, HL60) (human, UniProt Q5QGZ9 1-265); assay: cell-based or functional assay
T3 sequence: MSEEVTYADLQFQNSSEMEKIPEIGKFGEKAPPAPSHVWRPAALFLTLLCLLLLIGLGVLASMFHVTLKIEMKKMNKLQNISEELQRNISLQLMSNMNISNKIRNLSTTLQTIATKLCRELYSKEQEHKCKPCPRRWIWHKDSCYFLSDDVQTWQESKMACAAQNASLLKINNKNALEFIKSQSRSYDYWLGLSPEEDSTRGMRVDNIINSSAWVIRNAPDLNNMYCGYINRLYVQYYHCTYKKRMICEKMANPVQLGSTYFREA

Cynomolgus CD64 (FcγRI) [4] = target: T4, Cynomolgus CD64 (FcγRI) (cynomolgus monkey, UniProt A0A2K5U901 33-309, Biotinylated and captured on the CAP chip (p-1094); the biotin site is not stated.); assay: SPR, summary of FcγR affinities (n = 3)
T4 construct: Bought recombinant receptor; also called cFcγRI; Cynomolgus FcγRI; not shown: The vendor's biotinylation and purification tag (ACRO FCA-C82E8)
T4 sequence (A0A2K5U901 entry or part of it limits assumed): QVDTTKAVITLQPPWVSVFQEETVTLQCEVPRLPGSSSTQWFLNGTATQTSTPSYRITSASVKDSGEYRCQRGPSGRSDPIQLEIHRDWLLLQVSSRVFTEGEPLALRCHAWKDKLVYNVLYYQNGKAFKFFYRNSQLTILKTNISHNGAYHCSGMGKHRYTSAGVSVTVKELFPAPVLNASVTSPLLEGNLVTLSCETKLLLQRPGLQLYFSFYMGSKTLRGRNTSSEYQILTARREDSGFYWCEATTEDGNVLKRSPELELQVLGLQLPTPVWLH

[5] = target: T5, Cynomolgus CD16 (FcγRIII) (cynomolgus monkey, UniProt Q8SPW2 17-208, biotinylated); assay: SPR, summary of FcγR affinities (n = 3)
T5 construct: Bought recombinant receptor; also called cFcγRIII; Cyno FcγRIII
T5 sequence (Q8SPW2 17-208 limits assumed): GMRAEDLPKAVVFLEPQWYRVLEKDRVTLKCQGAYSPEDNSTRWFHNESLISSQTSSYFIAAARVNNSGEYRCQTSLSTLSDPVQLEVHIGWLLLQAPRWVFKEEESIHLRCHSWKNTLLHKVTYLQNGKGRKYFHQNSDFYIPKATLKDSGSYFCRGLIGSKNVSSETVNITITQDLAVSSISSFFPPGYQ
Experimental: as §1
Detailed description of each individual receptor binding is presented below.

Cynomolgus CD64 (FcγRI) [6] = target: T4, Cynomolgus CD64 (FcγRI); assay: SPR 25C, biotinylated cyno CD64 captured on CAP chip
Experimental: as §1

B1: AB0089 TriNKET (bispecific antibody, human IgG1, kappa)
chain: QLQLQESGPGLVKPSETLSLTCTVSGFSLTNYGLHWIRQPPGKCLEWIGVIWVGGATDYNPSLKSRVTISVDTSKNQFSLKLSSVQAADTAVYYCAKGDYGDTLDYWGQGTLVTVSSGGGGSGGGGSGGGGSGGGGSDIQMTQSPSSLSASVGDRVTITCHASQNINFWLSWYQQKPGKAPKLLIYEASNLHTGVPSRFSGSGSGTDFTLTISSLQPEDFATYYCQQSHSYPLTFGCGTKLEIKGSDKTHTCPPCPAPELLGGPSVFLFPPKPKDTLMISRTPEVTCVVVDVSHEDPEVKFNWYVDGVEVHNAKTKPREEQYNSTYRVVSVLTVLHQDWLNGKEYKCKVSNKALPAPIEKTISKAKGQPREPRVYTLPPCRDELTKNQVSLTCLVKGFYPSDIAVEWESNGQPENNYKTTPPVLVSDGSFTLYSKLTVDKSRWQQGNVFSCSVMHEALHNHYTQKSLSLSPG
heavy: EVQLVESGGGLVKPGGSLRLSCAASGFTFSSYSMNWVRQAPGKGLEWVSSISSSSSYIYYADSVKGRFTISRDNAKNSLYLQMNSLRAEDTAVYYCARGAPIGAAAGWFDPWGQGTLVTVSSASTKGPSVFPLAPSSKSTSGGTAALGCLVKDYFPEPVTVSWNSGALTSGVHTFPAVLQSSGLYSLSSVVTVPSSSLGTQTYICNVNHKPSNTKVDKKVEPKSCDKTHTCPPCPAPELLGGPSVFLFPPKPKDTLMISRTPEVTCVVVDVSHEDPEVKFNWYVDGVEVHNAKTKPREEQYNSTYRVVSVLTVLHQDWLNGKEYKCKVSNKALPAPIEKTISKAKGQPREPQVCTLPPSRDELTENQVSLTCLVKGFYPSDIAVEWESNGQPENNYKTTPPVLDSDGSFFLYSWLTVDKSRWQQGNVFSCSVMHEALHNHYTQKSLSLSPG
light: DIQMTQSPSSVSASVGDRVTITCRASQGISSWLAWYQQKPGKAPKLLIYAASSLQSGVPSRFSGSGSGTDFTLTISSLQPEDFATYYCQQGVSFPRTFGGGTKVEIKRTVAAPSVFIFPPSDEQLKSGTASVVCLLNNFYPREAKVQWKVDNALQSGNSQESVTEQDSKDSTYSLSSTLTLSKADYEKHKVYACEVTHQGLSSPVTKSFNRGEC
notes: F3' format heterodimer of three chains; human IgG1 Fc with EW-RVT and Y349C/S354C mutations; also called AB0089 Lot AB0089-002; CLEC12A TriNKET AB0089
**Q.** B1 was tested. Which Kd [1] did it give?
**A.** 900 nM

**Q.** And the Kd [2]?
**A.** 1250 nM

**Q.** And the “EC50, KHYG-1-CD16aV cytotoxicity assay; after 4 wks 40C in HST pH 6.0” value [3]?
**A.** 0.17 nM

**Q.** What about the “EC50, KHYG-1-CD16aV cytotoxicity assay; control sample” value [3] of the same binder?
**A.** 0.16 nM

**Q.** What about the Kd (Cynomolgus CD64 (FcγRI) [4]) of the same binder?
**A.** 1.5 nM

**Q.** What about the Kd [5] of the same binder?
**A.** 349 nM

**Q.** What about the Kd (Cynomolgus CD64 (FcγRI) [6]) of the same binder?
**A.** 1.5 nM and 1.8 nM and 1.2 nM

**Q.** And the koff (Cynomolgus CD64 (FcγRI) [6])?
**A.** 8.1e-05 s⁻¹ and 9.5e-05 s⁻¹ and 6.6e-05 s⁻¹

**Q.** And the kon (Cynomolgus CD64 (FcγRI) [6])?
**A.** 55000 M⁻¹ s⁻¹ and 54000 M⁻¹ s⁻¹
